Test results published in US7851436 (WASHINGTON UNIVERSITY IN ST LOUIS, dated 2010).

Assays:
α5 integrin = biological target: T1, α5 integrin (human, UniProt P08648 42-1049); assay: GST pull-down from surface-biotinylated Ch-1 lysate, Western blot (data not shown)
T1 construct: whole, on cells

α4 integrin = biological target: T2, α4 integrin (human, UniProt P13612 34-1032); assay: as above
T2 construct: whole, on cells; The antibody lists in the methods name α2, α3 and α5 but not α4
T2 sequence (looked up): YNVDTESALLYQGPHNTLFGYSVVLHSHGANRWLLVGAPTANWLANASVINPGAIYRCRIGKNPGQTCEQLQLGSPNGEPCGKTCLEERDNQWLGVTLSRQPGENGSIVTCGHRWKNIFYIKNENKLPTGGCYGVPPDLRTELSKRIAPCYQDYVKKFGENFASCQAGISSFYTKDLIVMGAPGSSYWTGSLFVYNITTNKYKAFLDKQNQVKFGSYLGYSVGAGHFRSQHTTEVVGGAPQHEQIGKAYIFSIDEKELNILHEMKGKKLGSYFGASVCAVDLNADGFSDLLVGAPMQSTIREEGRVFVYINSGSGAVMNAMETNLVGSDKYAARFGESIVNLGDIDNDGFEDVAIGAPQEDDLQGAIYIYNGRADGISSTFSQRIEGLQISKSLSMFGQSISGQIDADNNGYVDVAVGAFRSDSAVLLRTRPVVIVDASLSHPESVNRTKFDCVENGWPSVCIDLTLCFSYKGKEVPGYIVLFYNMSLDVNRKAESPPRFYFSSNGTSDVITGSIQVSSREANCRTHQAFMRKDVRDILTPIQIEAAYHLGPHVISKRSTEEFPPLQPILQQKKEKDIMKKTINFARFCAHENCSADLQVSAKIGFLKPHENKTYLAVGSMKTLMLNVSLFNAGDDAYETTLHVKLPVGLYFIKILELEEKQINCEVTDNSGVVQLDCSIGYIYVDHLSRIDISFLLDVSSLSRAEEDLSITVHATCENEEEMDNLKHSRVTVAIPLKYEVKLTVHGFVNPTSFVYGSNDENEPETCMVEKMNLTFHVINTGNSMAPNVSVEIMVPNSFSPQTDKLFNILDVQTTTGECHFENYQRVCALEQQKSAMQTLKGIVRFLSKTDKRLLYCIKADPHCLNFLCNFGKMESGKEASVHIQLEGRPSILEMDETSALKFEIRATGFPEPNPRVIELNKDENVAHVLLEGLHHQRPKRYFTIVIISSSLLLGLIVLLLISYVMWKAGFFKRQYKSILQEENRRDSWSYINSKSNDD
Experimental: (§1) Cell Surface labeling and GST Pull-down Assay. Ch-1 cells were incubated with EZ-link Sulfo-NHS-Biotin reagent for 30 mins. according to the product instruction (Sigma). After 3 washes with 0.1 M glycine in PBS, the cells were lysed with a lysis buffer described above. […] The membrane was washed and incubated with antibodies and then incubated with a secondary antibody coupled to horseradish peroxidase. The antibody complex was visualized by enhanced chemiluminescence.

β1 integrin = biological target: T3, β1 integrin (human, UniProt P05556 21-798); assay: GST pull-down from surface-biotinylated Ch-1 lysate, Western blot (FIG. 3K)
T3 construct: whole, on cells; Probed by Western blot in the material pulled out by PIIBNP
T3 sequence (P05556 21-798): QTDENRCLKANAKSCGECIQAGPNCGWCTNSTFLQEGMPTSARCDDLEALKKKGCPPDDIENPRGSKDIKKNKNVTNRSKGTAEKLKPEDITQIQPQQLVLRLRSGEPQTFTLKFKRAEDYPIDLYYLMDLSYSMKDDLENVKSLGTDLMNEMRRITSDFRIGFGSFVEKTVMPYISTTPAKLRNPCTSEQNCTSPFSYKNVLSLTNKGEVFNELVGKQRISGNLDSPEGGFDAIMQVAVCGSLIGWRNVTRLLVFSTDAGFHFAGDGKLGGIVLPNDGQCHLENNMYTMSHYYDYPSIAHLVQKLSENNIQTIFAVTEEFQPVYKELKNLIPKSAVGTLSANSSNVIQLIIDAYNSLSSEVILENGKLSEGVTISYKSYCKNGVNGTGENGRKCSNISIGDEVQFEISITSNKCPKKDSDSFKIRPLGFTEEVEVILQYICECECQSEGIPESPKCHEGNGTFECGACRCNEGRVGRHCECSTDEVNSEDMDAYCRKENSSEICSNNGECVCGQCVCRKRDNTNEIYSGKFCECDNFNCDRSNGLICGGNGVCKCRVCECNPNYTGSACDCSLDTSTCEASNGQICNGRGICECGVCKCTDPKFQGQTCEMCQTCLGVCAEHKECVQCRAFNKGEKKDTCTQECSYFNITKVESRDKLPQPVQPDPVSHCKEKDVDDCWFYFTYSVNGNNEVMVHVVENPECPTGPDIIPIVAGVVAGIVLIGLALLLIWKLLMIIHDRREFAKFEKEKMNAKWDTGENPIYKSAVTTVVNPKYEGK
Experimental: as §1

Measured: binding result

T1 sequence (P08648 42-1049): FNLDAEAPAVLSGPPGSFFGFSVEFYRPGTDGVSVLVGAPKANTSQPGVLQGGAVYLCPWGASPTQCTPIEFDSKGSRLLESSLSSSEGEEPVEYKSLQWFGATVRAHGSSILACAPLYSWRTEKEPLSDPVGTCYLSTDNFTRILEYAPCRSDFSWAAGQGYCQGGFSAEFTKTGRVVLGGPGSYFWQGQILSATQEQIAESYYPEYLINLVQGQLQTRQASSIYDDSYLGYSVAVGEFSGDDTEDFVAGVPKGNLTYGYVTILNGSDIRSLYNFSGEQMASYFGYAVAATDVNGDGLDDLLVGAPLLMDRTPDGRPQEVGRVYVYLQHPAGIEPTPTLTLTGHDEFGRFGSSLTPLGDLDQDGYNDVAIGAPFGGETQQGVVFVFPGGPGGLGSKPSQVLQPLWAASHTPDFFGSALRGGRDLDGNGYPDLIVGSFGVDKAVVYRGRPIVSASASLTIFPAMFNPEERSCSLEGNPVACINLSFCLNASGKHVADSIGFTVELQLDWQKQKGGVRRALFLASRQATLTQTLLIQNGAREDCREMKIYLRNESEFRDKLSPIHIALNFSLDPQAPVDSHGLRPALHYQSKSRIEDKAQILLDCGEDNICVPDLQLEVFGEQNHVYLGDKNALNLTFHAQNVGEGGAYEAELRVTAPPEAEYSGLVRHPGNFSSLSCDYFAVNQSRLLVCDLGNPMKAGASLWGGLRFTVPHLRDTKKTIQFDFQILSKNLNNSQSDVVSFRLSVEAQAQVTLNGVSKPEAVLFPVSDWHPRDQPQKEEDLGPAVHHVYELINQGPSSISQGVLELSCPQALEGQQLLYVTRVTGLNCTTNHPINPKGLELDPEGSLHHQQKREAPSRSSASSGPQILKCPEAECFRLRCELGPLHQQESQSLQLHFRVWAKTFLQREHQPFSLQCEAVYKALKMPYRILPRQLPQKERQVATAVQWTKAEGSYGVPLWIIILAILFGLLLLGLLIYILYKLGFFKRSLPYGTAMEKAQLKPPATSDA

B1: GST-PIIBNP (GST fusion of human Type IIB collagen amino propeptide, exons 3-8) (ligand)
chain: not shown
notes: domain: PIIBNP (exons 3-8); Expressed in E. coli BL21 (DE3) as a GST fusion; also called Type IIB propeptide; PPIIBNP; not shown: glutathione S-transferase (GST) tag encoded by the pGEX-4T-2 vector, thrombin-cleavable
no binding: all assays above
